Consider five molecules from US20110239311A1, “Agonists of NR2F6 For Immunosupression” (Medizinische Universitat Innsbruck, priority 2008, published 2011).

The subject of one test is CD4+ T cells. As to the kind of experiment: IL-2 secretion of transfected CD4+ T cells upon CD3 plus CD28 stimulation. The class given is cell-based, mouse. Conditions: vs control transfection. As to the method: CD4+ T cells were negatively selected by magnetic cell sorting (Miltenyi Biotec). T cell populations were typically 95% CD4+, as determined by staining and flow cytometry. Cells were resuspended in solution from Nucleofactor mouse T cell kit and program X-01 following the Amaxa guidelines for cell-line transfection. In brief, up to 1×10^7 cells were mixed with 1.5 μM of synthetic ON-TARGETpIus siRNA predesigned by Dharmacon (i.e., order code 045088) as pool (see SEQ ID NOs: 19 to 26) or ON-TARGETplussiCONTROL nontargeting pool were nucleofected with the Amaxy Nucleofactor apparatus and immediately transferred into 37° C. prewarmed culture medium and cultured for a minimum of 24 hours before experimental analysis; see also FIG. 16.
Analysis of cytokine production: Cytokine production of mouse CD4^+ T cells after Th17 polarizing stimulation was assessed via the BioPlex technology (BioRad) according to manufacturer's instructions.

In test [1] the test system is IL-17A promoter:luciferase reporter. As to the kind of experiment: IL-17A promoter:luciferase reporter transrepression assay in Jurkat cells. The class given is cell-based, human. Conditions: transient overexpression in Jurkat cells. The protocol: (§1) Jurkat-TAg cells (a kind gift from Dr. Crabtree, Stanford University, CA) have been transiently transfected with circular plasmid DNA by electroporation (BTX-T820 ElectroSquarePorator™, ITC, Biotech, Heidelberg, Germany), using predetermined optimal conditions (1×10^7 cells in 200 μl RPMI medium at 450 V/cm and 5 pulses of 99 msec), yielding approx. 40% transfection efficiency. NF-AT:AP-1 reporter gene expression was measured in transient cotransfection assays using 10 μg pSRα-CD28, 15 μg of the GFP or Nr2f6 expression vectors and 15 μg of the promoter firefly luciferase reporter (RLU1). The latter were a NF-AT:AP-1 composite site reporter (Macian et al., 2001), a NF-AT reporter construct containing three tandem copies of the NF-AT minimal consensus sequence and the proximal IL-17A promoter reporter (Liu et al., 2004). The proximal IL-17A promoter is also described elsewhere herein. After 21 h cells were stimulated with solid-phase CD3 and CD28 agonistic antibodies for 16 h or left unstimulated, as indicated and the firefly luciferase was measured employing the luciferase detection kit (Promega, Madison, Wis.) and the βJet-Luminometer (WALLAC, Turku, Finland).
(In general: Reporter assays use an easily measured gene product as a stand-in for the process of interest.)

For test [2], the system named is NFAT/AP-1 promoter:luciferase reporter. As to the kind of experiment: NFAT/AP-1 promoter:luciferase reporter transrepression assay in Jurkat cells. The conditions noted are these: transient overexpression in Jurkat cells. The class given is cell-based, human. The protocol: as §1
A further test deals with T1, NR2F6 (Homo sapiens, UniProt P10588).
T1 construct: expressed in transfected cells; host or cells: Jurkat T cells (transient electroporation)
T1 sequence (P10588 1-404): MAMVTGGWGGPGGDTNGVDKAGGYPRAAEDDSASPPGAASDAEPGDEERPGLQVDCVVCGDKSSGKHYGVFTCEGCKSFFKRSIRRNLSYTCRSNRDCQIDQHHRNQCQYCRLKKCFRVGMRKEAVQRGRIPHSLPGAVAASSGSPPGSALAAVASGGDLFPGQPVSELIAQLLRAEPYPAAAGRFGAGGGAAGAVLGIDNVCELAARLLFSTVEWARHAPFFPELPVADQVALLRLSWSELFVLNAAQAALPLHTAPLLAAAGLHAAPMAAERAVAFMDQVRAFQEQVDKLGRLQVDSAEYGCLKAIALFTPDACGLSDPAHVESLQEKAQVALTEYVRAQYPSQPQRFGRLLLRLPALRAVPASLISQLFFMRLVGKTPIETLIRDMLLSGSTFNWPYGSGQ
As to the kind of experiment: RARE containing renilla luciferase reporter assay in NR2F6 transfected Jurkat T cells. In kind it is cell-based. The conditions noted are these: CD3/CD28 with or without RA 20 microM. As to the method: Jurkat T cells were maintained in RPMI medium supplemented with 10% FCS (Life Technologies, Inc.). Transient transfection of cells was performed by electroporation in a BTX-T820 ElectroSquarePorator (ITC, Biotech, Heidelberg, Germany) apparatus using predetermined optimal conditions: 2×10^7 cells at 450 V/cm and 5 pulses of 99 msec. Optimix medium (Equibio, Kent, UK) was used for studies of promoter reporter gene expression. Reporter gene expression was measured in co-transfection assays using 15 μg of the NR2F6 wild type or mutant expression vectors and 5 μg of the RARE containing renilla luciferase reporter vector pTK-Renilla-Luc (Promega, Medison, Wi). After 24 hrs cells were stimulated with solid phase CD3 and CD28 antibodies with or without retinoic acid (RA at 20 microM) for 16 hrs, as indicated.

Another test concerns the target T2, NR2F6-ER (UniProt P10588+P19785, G525R).
T2 construct: expressed in transfected cells; host or cells: Jurkat T cells (transient electroporation)
T2 sequence (P10588+P19785 with tags, fused parts or gaps P19785:G525R): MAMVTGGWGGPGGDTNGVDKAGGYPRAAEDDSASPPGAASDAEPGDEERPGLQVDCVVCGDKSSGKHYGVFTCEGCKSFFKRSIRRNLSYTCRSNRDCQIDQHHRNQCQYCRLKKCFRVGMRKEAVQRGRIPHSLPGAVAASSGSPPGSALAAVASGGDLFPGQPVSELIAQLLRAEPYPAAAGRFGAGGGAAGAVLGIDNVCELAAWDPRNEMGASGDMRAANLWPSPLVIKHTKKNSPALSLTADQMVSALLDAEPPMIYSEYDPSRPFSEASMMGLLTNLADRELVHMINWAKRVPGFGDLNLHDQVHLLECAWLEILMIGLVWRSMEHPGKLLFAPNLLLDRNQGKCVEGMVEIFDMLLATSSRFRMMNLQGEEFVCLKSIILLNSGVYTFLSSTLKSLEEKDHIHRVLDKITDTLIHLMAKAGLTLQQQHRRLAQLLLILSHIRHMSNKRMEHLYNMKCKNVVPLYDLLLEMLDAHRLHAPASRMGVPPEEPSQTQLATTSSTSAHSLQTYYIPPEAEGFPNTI
As to the kind of experiment: NF-AT/AP-1 promoter luciferase reporter assay in NR2F6-ER transfected Jurkat T cells. The class given is cell-based, human. Conditions: transiently transfected Jurkat T cells.

Experimental for NR2F6-ER: Jurkat T cells were maintained in RPMI medium supplemented with 10% FCS (Life Technologies, Inc.). Transient transfection of cells was performed by electroporation in a BTX-T820 ElectroSquarePorator (ITC, Biotech, Heidelberg, Germany) apparatus using predetermined optimal conditions: 2×10^7 cells at 450 V/cm and 5 pulses of 99 msec. Optimix medium (Equibio, Kent, UK) was used for studies of promoter reporter gene expression. Reporter gene expression was measured in co-transfection assays using 15 μg of the NR2F6 wild-type or mutant expression vectors and 15 μg of the AP-1/NF-AT promoter firefly luciferase reporter (RLU1). For normalization 0.3 μg of the renilla luciferase reporter vector pTK-Renilla-Luc (Promega, Medison, Wi) (RLU2) has been used.

B1: NR2F6: recombinant overexpressed nuclear receptor subfamily 2, group F, member 6 (Ear2), SEQ ID NO: 2 (protein, listed as Homo sapiens)
chain: MAMVTGGWGGPGGDTNGVDKAGGYPRAAEDDSASPPGAASDAEPGDEERPGLQVDCVVCGDKSSGKHYGVFTCEGCKSFFKRSIRRNLSYTCRSNRDCQIDQHHRNQCQYCRLKKCFRVGMRKEAVQRGRIPHSLPGAVAASSGSPPGSALAAVASGGDLFPGQPVSELIAQLLRAEPYPAAAGRFGAGGGAAGAVLGIDNVCELAARLLFSTVEWARHAPFFPELPVADQVALLRLSWSELFVLNAAQAALPLHTAPLLAAAGLHAAPMAAERAVAFMDQVRAFQEQVDKLGRLQVDSAEYGCLKAIALFTPDACGLSDPAHVESLQEKAQVALTEYVRAQYPSQPQRFGRLLLRLPALRAVPASLISQLFFMRLVGKTPIETLIRDMLLSGSTFNWPYGSGQ
Take B1: the IL-2 cytokine secretion result in the test on CD4+ T cells is recorded as “significantly suppresses IL-2 secretion responses”. In test [1], the “trans-repression of CD3/CD28 activation-induced IL-17A promoter:luciferase reporter” value is “robust and reproducible trans-repression”. For the same molecule, the “trans-repression of CD3/CD28 activation-induced NFAT/AP-1 promoter:luciferase reporter” value in test [2] is “robust and reproducible trans-repression”.

B2: S83E: S83E mutant of NR2F6, Ser-83 phospho-mimic, DNA-binding deficient, SEQ ID NO: 8 (protein, listed as Homo sapiens)
chain: MAMVTGGWGGPGGDTNGVDKAGGYPRAAEDDSASPPGAASDAEPGDEERPGLQVDCVVCGDKSSGKHYGVFTCEGCKSFFKREIRRNLSYTCRSNRDCQIDQHHRNQCQYCRLKKCFRVGMRKEAVQRGRIPHSLPGAVAASSGSPPGSALAAVASGGDLFPGQPVSELIAQLLRAEPYPAAAGRFGAGGGAAGAVLGIDNVCELAARLLFSTVEWARHAPFFPELPVADQVALLRLSWSELFVLNAAQAALPLHTAPLLAAAGLHAAPMAAERAVAFMDQVRAFQEQVDKLGRLQVDSAEYGCLKAIALFTPDACGLSDPAHVESLQEKAQVALTEYVRAQYPSQPQRFGRLLLRLPALRAVPASLISQLFFMRLVGKTPIETLIRDMLLSGSTFNWPYGSGQ
modifications: VARIANT (83)..(83) S83E mutation
As for B2, the “transcriptional repressor activity (RARE reporter)” value in the test with NR2F6 is recorded as “lost its transcriptional repressor activity”. For the same molecule, the “trans-repression of CD3/CD28 activation-induced IL-17A promoter:luciferase reporter” value in test [1] is “not able to suppress”. For the same molecule, the “trans-repression of CD3/CD28 activation-induced NFAT/AP-1 promoter:luciferase reporter” value in test [2] is recorded as “not able to suppress”.

B3: C112S: C112S zinc finger mutant of NR2F6, defective in DNA binding, SEQ ID NOs: 30 and 31 (protein)
chain: MAMVTGGWGGPGGDTNGVDKAGGYPRAAEDDSASPPGAASDAEPGDEERPGLQVDCVVCGDKSSGKHYGVFTCEGCKSFFKRSIRRNLSYTCRSNRDCQIDQHHRNQCQYSRLKKCFRVGMRKEAVQRGRIPHSLPGAVAASSGSPPGSALAAVASGGDLFPGQPVSELIAQLLRAEPYPAAAGRFGAGGGAAGAVLGIDNVCELAARLLFSTVEWARHAPFFPELPVADQVALLRLSWSELFVLNAAQAALPLHTAPLLAAAGLHAAPMAAERAVAFMDQVRAFQEQVDKLGRLQVDSAEYGCLKAIALFTPDACGLSDPAHVESLQEKAQVALTEYVRAQYPSQPQRFGRLLLRLPALRAVPASLISQLFFMRLVGKTPIETLIRDMLLSGSTFNWPYGSGQ
modifications: /note=“Description of artificial sequence amino acid sequence of C112S mutated NR2F6”
B3: the “transcriptional repressor activity (RARE reporter)” value with NR2F6 is “lost its transcriptional repressor activity”. In addition, the “trans-repression of CD3/CD28 activation-induced IL-17A promoter:luciferase reporter” value in test [1] is reported as “lost its transcriptional repressor activity”. Also, in test [2], the “trans-repression of CD3/CD28 activation-induced NFAT/AP-1 promoter:luciferase reporter” value was “lost its transcriptional repressor activity”.

B4: NR2F6-ER: conditionally activated NR2F6 estrogen-receptor ligand binding domain mutant (ERmut-LBD) fusion protein, SEQ ID NO: 10 (protein)
chain: MAMVTGGWGGPGGDTNGVDKAGGYPRAAEDDSASPPGAASDAEPGDEERPGLQVDCVVCGDKSSGKHYGVFTCEGCKSFFKRSIRRNLSYTCRSNRDCQIDQHHRNQCQYCRLKKCFRVGMRKEAVQRGRIPHSLPGAVAASSGSPPGSALAAVASGGDLFPGQPVSELIAQLLRAEPYPAAAGRFGAGGGAAGAVLGIDNVCELAWDPRNEMGASGDMRAANLWPSPLVIKHTKKNSPALSLTADQMVSALLDAEPPMIYSEYDPSRPFSEASMMGLLTNLADRELVHMINWAKRVPGFGDLNLHDQVHLLECAWLEILMIGLVWRSMEHPGKLLFAPNLLLDRNQGKCVEGMVEIFDMLLATSSRFRMMNLQGEEFVCLKSIILLNSGVYTFLSSTLKSLEEKDHIHRVLDKITDTLIHLMAKAGLTLQQQHRRLAQLLLILSHIRHMSNKGMEHLYNMKCKNVVPLYDLLLEMLDAHRLHAPASRMGVPPEEPSQTQLATTSSTSAHSLQTYYIPPEAEGFPNTI
modifications: /note=“Description of artificial sequence amino acid sequence of NR2F6 wild-type Er-LBD fusion mutant”
Take B4: in the test with NR2F6-ER, the “CD3/CD28-induced NF-AT/AP-1 composite element-dependent reporter” value is reported as “repressed”.

B5: NR2F2 wild type: the closest relative of NR2F6, used as control (protein, UniProt P24468 1-414, looked up)
COUP transcription factor 2: MAMVVSTWRDPQDEVPGSQGSQASQAPPVPGPPPGAPHTPQTPGQGGPASTPAQTAAGGQGGPGGPGSDKQQQQQHIECVVCGDKSSGKHYGQFTCEGCKSFFKRSVRRNLSYTCRANRNCPIDQHHRNQCQYCRLKKCLKVGMRREAVQRGRMPPTQPTHGQFALTNGDPLNCHSYLSGYISLLLRAEPYPTSRFGSQCMQPNNIMGIENICELAARMLFSAVEWARNIPFFPDLQITDQVALLRLTWSELFVLNAAQCSMPLHVAPLLAAAGLHASPMSADRVVAFMDHIRIFQEQVEKLKALHVDSAEYSCLKAIVLFTSDACGLSDVAHVESLQEKSQCALEEYVRSQYPNQPTRFGKLLLRLPSLRTVSSSVIEQLFFVRLVGKTPIETLIRDMLLSGSSFNWPYMAIQ
On to B5, for which, in test [1], the “trans-repression of CD3/CD28 activation-induced IL-17A promoter:luciferase reporter” value is on record as “not able to suppress”. Besides, in test [2], the “trans-repression of CD3/CD28 activation-induced NFAT/AP-1 promoter:luciferase reporter” value was “not able to suppress”.
